Assay results from PMC3925751.

Target: the model collagen surfaces
Assay: SPR

adsorbed amount: 1 to 2 mg/m^2
Substance: lubricin (PRG4), purified from human synovial fluid (natural protein)
